In IntAct's records for PubMed 9461438:

B1: WD repeat-containing protein slp1 (Schizosaccharomyces pombe (strain ATCC 38366 / 972)), P78972 (parent)
chain: MEIAGNSSTISPTFSTPTKKRNLVFPNSPITPLHQQALLGRNGRSSKRCSPKSSFIRNSPKIDVVNTDWSIPLCGSPRNKSRPASRSDRFIPSRPNTANAFVNSISSDVPFDYSESVAEACGFDLNTRVLAFKLDAPEAKKPVDLRTQHNRPQRPVVTPAKRRFNTTPERVLDAPGIIDDYYLNLLDWSNLNVVAVALERNVYVWNADSGSVSALAETDESTYVASVKWSHDGSFLSVGLGNGLVDIYDVESQTKLRTMAGHQARVGCLSWNRHVLSSGSRSGAIHHHDVRIANHQIGTLQGHSSEVCGLAWRSDGLQLASGGNDNVVQIWDARSSIPKFTKTNHNAAVKAVAWCPWQSNLLATGGGTMDKQIHFWNAATGARVNTVDAGSQVTSLIWSPHSKEIMSTHGFPDNNLSIWSYSSSGLTKQVDIPAHDTRVLYSALSPDGRILSTAASDENLKFWRVYDGDHVKRPIPITKTPSSSITIR
partner: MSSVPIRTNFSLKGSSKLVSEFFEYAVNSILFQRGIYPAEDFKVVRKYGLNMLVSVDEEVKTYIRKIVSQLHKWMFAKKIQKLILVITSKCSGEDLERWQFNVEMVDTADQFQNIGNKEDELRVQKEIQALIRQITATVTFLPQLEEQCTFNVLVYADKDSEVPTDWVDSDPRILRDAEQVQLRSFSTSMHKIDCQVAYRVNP

Variants of: B1
Details: with mad2_schpo mad2, O14417

Q: Which “effect of a mutation on the interaction” value does the source give for MEIAGNSSTISPTFSTPTKKRNLVFPNSPITPLHQQALLGRNGRSSKRCSPKSSFIRNSPKIDVVNTDWSIPLCGSPRNKSRPASRSDRFIPSRPNTANAFVNSISSDVPFDYSESVAEACGFDLNTRVLPYKLDAPEAKKPVDLRTQHNRPQRPVVTPAKRRFNTTPERVLDAPGIIDDYYLNLLDWSNLNVVAVALERNVYVWNADSGSVSALAETDESTYVASVKWSHDGSFLSVGLGNGLVDIYDVESQTKLRTMAGHQARVGCLSWNRHVLSSGSRSGAIHHHDVRIANHQIGTLQGHSSEVCGLAWRSDGLQLASGGNDNVVQIWDARSSIPKFTKTNHNAAVKAVAWCPWQSNLLATGGGTMDKQIHFWNAATGARVNTVDAGSQVTSLIWSPHSKEIMSTHGFPDNNLSIWSYSSSGLTKQVDIPAHDTRVLYSALSPDGRILSTAASDENLKFWRVYDGDHVKRPIPITKTPSSSITIR [A131P;F132Y] here?
A: The value was “disrupting interaction”.
